In patent US7786071B2 (priority 2003, dated 2010):
Where a chain is given by its changes, count along the chain named. Names may count otherwise.

B1: G1C4: first-round directly evolved PON1 variant, thioredoxin-fused; SEQ ID NO: 26 (DNA), 58 (protein) (protein)
chain: MAKLLALTLVGLGLALFDGQKSSFQTRFNVHREVTPVELPNCNLVKGIETGAEDLEILPNGLAFISSGLKYPGIMSFDPDKSGKILLMDLNEEDPVVLELGITGSTFDLSSFNPHGISTFTDEDNTVYLLVVNHPDSSSTVEVFKFQEKEKSLLHLKTIRHKLLPSVNDIVAVGPEHFYATNDHYFIDPYLKSWEMHLGLAWSFVTYYSPNDVRVVAEGFDFANGINISPDGKYVYIAELLAHKIHVYEKHANWTLTPLKSLDFNTLVDNISVDPVTGDLWVGCHPNGMRIFYYDPKNPPASEVLRIQDILSEDPKITVVYAENGTVLQGTTVASVYKGKLLIGTVFHKALYCDL
modifications: thioredoxin-fused; In vitro evolved PON variant G1C4
B2: G2D6: second-round directly evolved PON1 variant, thioredoxin-fused; SEQ ID NO: 27 (DNA), 59 (protein) (protein)
chain: MAKLTALTLLGLGLALFDRQKSSFQTRFNVHREVTPVELPNCNLVKGIDNGSEDLEILPNGLAFISSGLKYPGIMSFDPDKSGKILLMDLNEEDPVVLELGITGSTFDLSSFNPHGISTFTDEDNTVYLLVVNHPDSSSTVEVFKFQEKERSLLHLKTIRHKLLPSVNDIVAVGPESFYATNDHYFADPYLKSWEMHLGLAWSFVTYYSPNDVRVVAEGFDFANGINISPDGKYVYIAELLAHKIHVYEKHANWTLTPLKSLDFNTLVDNISVDPVTGDLWVGCHPNGMRIFYYDPENPPGSEVLRIQDILSKEPKVTVVYAENGTVLQGSTVAAVYKGKLLIGTVFHKALYCDL
modifications: thioredoxin fusion; In vitro evolved PON variant G2D6
B3: G2E6: second-round directly evolved PON1 variant whose 3D structure was solved; SEQ ID NO: 28 (DNA), 60 (protein); 'wt' of Table 12 (protein)
chain: MAKLTALTLLGMGLALFDRQKSSFQTRFNVHREVTPVELPNCNLVKGIDNGSEDLEILPNGLAFISSGLKYPGIMSFDPDKSGKILLMDLNEKEPAVSELEIIGNTLDISSFNPHGISTFIDDDNTVYLLVVNHPGSSSTVEVFKFQEEEKSLLHLKTIRHKLLPSVNDIVAVGPEHFYATNDHYFIDPYLKSWEMHLGLAWSFVTYYSPNDVRVVAEGFDFANGINISPDGKYVYIAELLAHKIHVYEKHANWTLTPLRVLSFDTLVDNISVDPVTGDLWVGCHPNGMRIFFYDAENPPGSEVLRIQDILSEEPKVTVVYAENGTVLQGSTVAAVYKGKLLIGTVFHKALYCDL
modifications: In vitro evolved PON variant G2E6
B4: G3C9.10: G3C9 variant with mutations L69V and E218D; SEQ ID NO: 62, 63 (protein)
chain: MAKLTALTLLGLGLALFDGQKSSFQTRFNVHREVTPVELPNCNLVKGVDNGSEDLEILPNGLAFISSGVKYPGIMSFDPDKSGKILLMDLNEEDPVVLELGITGNTLDISSFNPHGISTFTDEDNTVYLLVVNHPDSSSTVEVFKFQEEEKSLLHLKTIRHKLLPSVNDIVAVGPEHFYATNDHYFADPYLKSWEMHLGLAWSFVTYYSPNDVRVVADGFDFANGINISPDGKYVYIAELLAHKIHVYEKHANWTLTPLKSLDFDTLVDNISVDPVTGDLWVGCHPNGMRIFYYDPKNPPGSEVLRIQDILSEEPKVTVVYAENGTVLQGSTVAAVYKGKLLIGTVFHKALYCEL
modifications: In vitro evolved PON variant G3C9.10
B5: G3C9.49: G3C9 variant with mutations G19R, S193P, N287D and V346A; SEQ ID NO: 64, 65 (protein)
chain: B4 chain with G19R, V69L, S193P, D218E, N287D, V346A
modifications: In vitro evolved PON variant G3C9.49
B6: G3H9: third generation trx-rPON3 variant; SEQ ID NO: 48, 54 (protein)
chain: MAKLLLLTLLGVGLSLVGERLLAFRNSFGAVQELESVEPQNCVLIEGLENGSEDIDILPSGLAFISSGLKYPGMPNFAPDEPGKIFLIDMNEKNPRAQELKISNGFEKESFNPHGISTFIDKDHTVYLYVVNHPNMDSTVEIFKFEEQQRSLVHLKTIKHELLKSVNDIVVLGPEQFYATRDHYFTNSLLSFFEMILDLRWTSVVFYSPKEVKVVAKGFSSANGITVSLDKKYVYVADATAKNVHVMEKHDNWDLTPVKVIQLGTLVDNLTVDPATGDILAGCHPNPMKLLNYNPEDPPGSEVLRIQNVLSEKPRVSTVYTNDGSVLQGTSVASVYQGKILIGTIFHKALYCDL
modifications: thioredoxin fusion; In vitro evolved PON variant G3H9
B7: G3A5: third generation trx-rPON3 variant; SEQ ID NO: 46, 52 (protein)
chain: MGELLLLTLLGASLAFVGEMFLAFRERVNASREVEPVEPQNCVLIEGLENGSEDIDILPNGLAFISSGLKYPGMPNFAPDEPGKIFLMDLNEQNPRAQELEISNGFEKESFNPHGISTFIDKDHTVYLYVVNHPNMDSTVEIFKFEERQRSLVHLKTIKHELLKSVNDIVVLGPEQFYATRDRYFTNYVLALLEMILDPHWTSVVFYSPKEVKVVAQGFSSANGITVSLDKKYVYVADATAKNVHVMEKHDNWDLTPVKVIQLGTLVDNLSVDPATGDILAGCHPNPMKLLNYNPEDPPGSEVLRIRNVLSEKPRVSTVYTNDGSVLQGTSVASVYQGKILIGTIFHKTLYCDL
modifications: thioredoxin fusion; In vitro evolved PON variant G3A5
B8: G2C2: second-generation trx-rPON3 variant; SEQ ID NO: 45, 51 (protein)
chain: MAKLLLLTLLGVGLSLVGERLLAFRNSFGAVQELEPVEPQNCVLIEGLENGSEDIDILPSGLAFISTGLKYPGMPNFAPDEPGKIFLMDLNEQNPRAQALEISGGFDKELFNPHGISTFIDKDNTVYLYVVNHPHMESTVEIFKFEEQQHSLIHLKTIKHELLKSVNDIVVLGPEQFYATRDHYFTNYVLARLEMILDLRWTYVLFYSPREVKVVAKGFSSANGITVSLDKKYVYVADATAKNVHVMEKHDNWDLTQLKVIQLGTLVDNLSVDPATGDILAGCHPNPMKLLNYNPEDPPGSEVLRIQNVLSEKPRVSTVYTNDGSVLQGTSVASVYQGKILIGTIFHKALHCDL
modifications: thioredoxin fusion; In vitro evolved PON variant G2C2
B9: G1A7: first generation trx-rPON3 variant; SEQ ID NO: 43, 49 (protein)
chain: MAKLLLLTLLGVGLSLVGERLLAFRNSFGAVQELEPVEPQNCHLIEGLENGSEDIDILPSGLAFISSGLKYPGMPAFAPDKPGRIFLMDLNEQNPEAQALEISGGLDQESLNPHGISTFIDKDSTAYLYVVNHPNMDSTVEIFKFEEQQRSLVHMKTIKHELLKSVNNIVVLGPEQFYATRDHYFTNSLLSFFEMILDPHWTSVVFYSPREVKVVAKGFSSANGITVSLDKKYVYVADATAKNVHVMEKHDNWDLTELKVIHLDTLVDNLTVDPATGDILAGCHPNPMKLLIYNPEDPPGSEVLRIQDSLSDKPRVSTLYANNGSVLQGTSVASVYHGKILIGTIFHKTLYCDL
modifications: thioredoxin fusion; In vitro evolved PON variant G1A7
B10: G1B11: first generation trx-rPON3 variant; SEQ ID NO: 44, 50 (protein)
chain: MAKLLLLTLLGACLALIGERLLNFRERVSTTREIKATEPQNCHLIEGLENGSEDIDILPSGLAFISSGLKYPGMPNFAPDEPGKIFLIDMNEQNPRAQALEISGGFDKELFNPHGISTFIDKDHTVYLYVVNHPNMDSTVEIFKFEEQQHSLIHLKTLKHELLKSVNDIVVLGPEQFYATRDHYFTNYVLALLKMFLDLRWTSVLFYSPKEVKVVAKGFSSANGITVSLDKKYVYVADATAKNVHVMEKHDNWDLTELKVIQLGTLVDNLTVDPATGDILAGCHPNPMKLLIYNPEDPPGSEVLRIQDVLSEKPRVSTVYANNGSVLQGSTVASVYQGKILIGTIFHKTLYCVL
modifications: thioredoxin fusion; In vitro evolved PON variant G1B11
B11: RabPON3: wild-type rabbit PON3 expressed in E. coli fused to thioredoxin; SEQ ID NO: 30, 41 (protein, listed as Oryctolagus cuniculus)
chain: MAKLLLLTLLGASLAFVGERLLAFRNSFGAVQELEPVEPQNCVLIEGLENGSEDIDILPSGLAFISSGLKYPGMPNFAPDEPGKIFLIDMNEKNPRAQELEISNGFEKESFNPHGISTFIDKDHTVYLYVVNHPHMKSTVEIFKFEEQQRSLVHLKTIKHELLKSVNNIVVLGPEQFYATRDHYFTNYVLALLEMFLDLHWTSVLFYSPKEVKVVAKGFSSANGITVSLDKKYVYVADATAKNVHVMEKHDNWDLTELKVIHLDTLVDNLSVDPATGDILAGCHPNGMKLLNYNPEDPPGSEVLRIQNVLSEKPRVSTVYTNDGSVLQGSTVASVYQGKILIGTIFHKTLYCVL
modifications: thioredoxin fusion
B12: G3G3: third generation trx-rPON3 variant; SEQ ID NO: 47, 53 (protein)
chain: MAKLLLLTLLGASLAFVGERLLAFRDSFGAVQELEPVEPQNCVLIEGLENGSEDIDILPSGLAFISSGLKYPGMPNFAPDEPGKIFLIDMNEKNPRAQALEISGGFDKESFNPHGISTFIDKDHTVYLYVVNHPNMDSTVEVFKFEEQQHSLIHLKTIKHELLKSVNDIVVLGPEQFYATRDHYFTNSLLSFFEMILDLRWTSVLFYSPREVKVVAKGFSSANGITVSLDKKYVYVADVAAKNIHIMEKHDNWDLTELKVIHLDTLVDNLTVDPATGDILAGCHPNPMKLLNYNPEDPPGSEVLRIQNVLSEKPRVSTVYANNGSVLQGTSVASVYHGKILIGTIFHKTLYCDL
modifications: thioredoxin fusion; In vitro evolved PON variant G3G3

Format: biochemical
Settings: pH 8

**Q.** Which “kcat (PheAc)” value does the source give for B1 here?
**A.** Its value is 552 s⁻¹.

**Q.** For B2, which “kcat (PheAc)” value is on record?
**A.** Its value is 562 s⁻¹.

**Q.** For B3, which “kcat (PheAc)” value is on record?
**A.** Its value is 965 s⁻¹.

Same assay, conditions: pH 8; read-out: KM(PheAc)

**Q.** With B1 as the molecule, how does the Km read?
**A.** The Km was 540 µM.

**Q.** Which Km does the source give for B2 here?
**A.** The Km was 320 µM.

**Q.** Which Km does the source give for B3 here?
**A.** Its Km is 430 µM.

Same assay, conditions: read-out: Phenylacetate hydrolysis KM

**Q.** For B4, which Km is on record?
**A.** The Km was 760 µM.

**Q.** With B5 as the molecule, how does the Km read?
**A.** Its Km is 300 µM.

Format: biochemical
Settings: pH 8
Remark: another data set of the same source

**Q.** For B1, which “kcat(Paraoxon)” value is on record?
**A.** The value was 0.54 s⁻¹.

**Q.** With B2 as the molecule, how does the “kcat(Paraoxon)” value read?
**A.** Its value is 0.98 s⁻¹.

**Q.** With B3 as the molecule, how does the “kcat(Paraoxon)” value read?
**A.** The value was 0.87 s⁻¹.

Same assay, conditions: pH 8; read-out: KM(Paraoxon)

**Q.** Which Km does the source give for B1 here?
**A.** The Km was 120 µM.

**Q.** Which Km does the source give for B2 here?
**A.** The Km was 100 µM.

**Q.** With B3 as the molecule, how does the Km read?
**A.** Its Km is 89 µM.

Same assay, conditions: read-out: Paraxon hydrolysis KM

**Q.** For B6, which Km is on record?
**A.** Its Km is 800 µM.

**Q.** Which Km does the source give for B7 here?
**A.** Its Km is 510 µM.

**Q.** With B8 as the molecule, how does the Km read?
**A.** Its Km is 800 µM.

**Q.** For B9, which Km is on record?
**A.** Its Km is 2500 µM.

**Q.** For B10, which Km is on record?
**A.** The Km was 1100 µM.

**Q.** Which Km does the source give for B11 here?
**A.** The Km was 1300 µM.

Format: biochemical
Settings: read-out: 2NA hydrolysis KM

**Q.** With B8 as the molecule, how does the Km read?
**A.** The Km was 260 µM.

**Q.** For B9, which Km is on record?
**A.** The Km was 160 µM.

**Q.** For B10, which Km is on record?
**A.** The Km was 180 µM.

**Q.** Which Km does the source give for B11 here?
**A.** The Km was 211 µM.

**Q.** For B12, which Km is on record?
**A.** The Km was 650 µM.

Format: biochemical
Settings: read-out: DEPCyC hydrolysis KM

**Q.** With B4 as the molecule, how does the Km read?
**A.** The Km was 50 µM.

**Q.** With B5 as the molecule, how does the Km read?
**A.** Its Km is 80 µM.
